Data on three molecules can be found in paper PMC10613254 (2023).

The term Kd denotes the constant that tells how readily two partners part at equilibrium.

B1: Cort_(18-76) (domain or fragment)
chain: GADDWETDPDFVNDVSEKEQRWGAKTVQGSGHQEHINIHKLRENVFQEHQTLKEKELET
B2: Cort_(1-76), cortactin N-terminal acidic domain (NTA, residues 1-76) (domain or fragment)
chain: MWKASAGHAVSITQDDGGADDWETDPDFVNDVSEKEQRWGAKTVQGSGHQEHINIHKLRENVFQEHQTLKEKELET

This assay concerns the target bovine brain Arp2/3 complex (bovine, UniProt P61157 1-418; A7MB62 1-394; Q58CQ2 1-372; Q3MHR7 1-300; Q3T035 1-178; Q148J6 …). In words: ITC. (Isothermal titration calorimetry measures the heat released or taken up as one component is titrated into another.)
Turning to B1, the Kd turned out to be 2.2 µM.
B2 came in with a Kd of 4.5 µM.
Then MWKASAGHAVSITQDDGGADDWETDPDFVNDVS (domain or fragment) [Cort_(1-33)], with 5.4 µM.
